Experimental data reported in US20220387586A1 (Hoffmann-La Roche, published 2022).

T1: LAG3 on cells (recombinant CHO cells expressing Lag3) (human, UniProt P18627 29-525)
T1 construct: The cell ELISA paragraphs say only 'Lag3'; also called CHO-LAG3; Lag3 cells
T1 sequence: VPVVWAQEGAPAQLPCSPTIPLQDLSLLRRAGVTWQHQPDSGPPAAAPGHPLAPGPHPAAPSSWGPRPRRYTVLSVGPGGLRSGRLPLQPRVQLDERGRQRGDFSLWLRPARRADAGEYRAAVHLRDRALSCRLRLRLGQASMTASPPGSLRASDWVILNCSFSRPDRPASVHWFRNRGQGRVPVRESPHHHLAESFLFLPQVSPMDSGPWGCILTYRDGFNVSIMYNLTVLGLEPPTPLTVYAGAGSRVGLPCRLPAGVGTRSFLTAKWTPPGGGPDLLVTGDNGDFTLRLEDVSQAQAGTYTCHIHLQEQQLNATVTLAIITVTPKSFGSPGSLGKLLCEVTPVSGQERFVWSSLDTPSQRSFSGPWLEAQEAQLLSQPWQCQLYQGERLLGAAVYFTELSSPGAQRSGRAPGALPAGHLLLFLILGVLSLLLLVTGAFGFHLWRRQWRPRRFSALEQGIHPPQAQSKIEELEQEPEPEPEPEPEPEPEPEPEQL

T2: LAG3 on PD1+LAG3+ human U2OS cells (Homo sapiens (Human), UniProt P18627 23-525)
T2 construct: also called cellular LAG3 (dimerization assay); not shown: subunit of the reporter enzyme fused to the cytosolic C-terminus
T2 sequence: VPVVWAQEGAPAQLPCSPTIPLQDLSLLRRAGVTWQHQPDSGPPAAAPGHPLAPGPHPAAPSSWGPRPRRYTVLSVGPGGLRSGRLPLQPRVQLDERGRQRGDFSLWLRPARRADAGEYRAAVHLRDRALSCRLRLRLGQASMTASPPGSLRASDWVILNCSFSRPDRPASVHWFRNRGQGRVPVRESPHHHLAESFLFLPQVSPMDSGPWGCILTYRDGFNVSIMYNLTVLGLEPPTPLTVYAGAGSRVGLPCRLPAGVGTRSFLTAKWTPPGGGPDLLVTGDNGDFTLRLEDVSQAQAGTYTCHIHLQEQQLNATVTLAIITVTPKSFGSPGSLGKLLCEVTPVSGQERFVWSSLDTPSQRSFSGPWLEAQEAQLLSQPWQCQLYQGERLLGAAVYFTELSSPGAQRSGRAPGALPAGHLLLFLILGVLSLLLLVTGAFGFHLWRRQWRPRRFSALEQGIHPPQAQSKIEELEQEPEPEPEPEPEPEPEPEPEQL

T3: biotinylated-Lag3 (UniProt P18627 23-450, limits assumed, biotinylated)
T3 construct: Probably a human LAG3 ECD construct; also called Lag3 (MHCII/ELISA)
T3 sequence (looked up): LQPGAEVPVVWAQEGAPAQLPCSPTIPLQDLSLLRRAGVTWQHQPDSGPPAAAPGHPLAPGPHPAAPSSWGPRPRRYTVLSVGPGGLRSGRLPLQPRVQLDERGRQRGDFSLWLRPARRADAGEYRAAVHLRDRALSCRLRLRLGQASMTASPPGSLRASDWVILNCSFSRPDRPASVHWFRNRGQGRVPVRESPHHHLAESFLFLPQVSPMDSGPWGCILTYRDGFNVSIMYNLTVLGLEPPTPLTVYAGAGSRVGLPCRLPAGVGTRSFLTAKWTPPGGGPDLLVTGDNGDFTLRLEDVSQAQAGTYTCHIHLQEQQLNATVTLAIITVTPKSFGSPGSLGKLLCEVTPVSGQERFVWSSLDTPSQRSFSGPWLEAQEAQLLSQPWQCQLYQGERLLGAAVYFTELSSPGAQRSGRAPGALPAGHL


Assays:
[1] = molecular target: T4, full-length human PD1 on cells (human, UniProt Q15116 25-288); experiment: cell ELISA on CHO-K1 cells expressing full-length human PD1 (rel. EC50)
T4 construct: also called CHO-PD1
T4 sequence (Q15116 25-288 limits assumed): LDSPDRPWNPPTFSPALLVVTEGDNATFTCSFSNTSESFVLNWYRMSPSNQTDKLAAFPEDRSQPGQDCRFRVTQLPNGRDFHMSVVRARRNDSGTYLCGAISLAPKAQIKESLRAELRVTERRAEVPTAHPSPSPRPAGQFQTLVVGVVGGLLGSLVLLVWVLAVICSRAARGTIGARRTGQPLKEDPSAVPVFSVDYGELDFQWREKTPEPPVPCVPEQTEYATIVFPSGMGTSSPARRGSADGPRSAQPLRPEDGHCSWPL
How it was run: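 Cells bound by test antibody were fixed with 0.05% glutaraldehyde for 10 min at RT, then detected with POD-conjugated anti-human H+L or anti-mouse secondary antibody for 1 h at RT. TMB development ran to OD 1.0-2.0, read at 370/492 nm.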

[2] = molecular target: T5, biotinylated PD1-ECD-AviHis (human, UniProt Q15116 25-170, biotinylated); experiment: ELISA on coated biotinylated PD1-ECD-AviHis (rel. EC50)
T5 construct: also called huPD1; hu PD1; not shown: Avi-His tag
T5 sequence (Q15116 25-170): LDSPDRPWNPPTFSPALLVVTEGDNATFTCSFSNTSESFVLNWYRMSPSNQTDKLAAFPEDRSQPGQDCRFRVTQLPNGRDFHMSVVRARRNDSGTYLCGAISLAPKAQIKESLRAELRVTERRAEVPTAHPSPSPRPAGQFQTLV
Description: After washing (3×90 μl/well with PBST-buffer) 25 μl/well goat-anti-human H+L-POD (JIR, JIR109-036-098) was added in 1:5000 dilution and incubated at RT for 1 h on a shaker. After washing (3×90 μl/well with PBST-buffer) 25 μl/well of TMB substrate (Roche, 11835033001) was added and incubated until OD 2-3. Measurement took place at 370/492 nm.

[3] = molecular target: T1, LAG3 on cells (recombinant CHO cells …); experiment: cell ELISA on recombinant CHO cells expressing Lag3 (rel. EC50)
[4] = molecular target: PD1 on PD1+LAG3+ human U2OS cells (UniProt Q15116 25-288); experiment: cellular PD1/LAG3 dimerization assay on PD1+LAG3+ U2OS cells, chemoluminescence; the signal needs PD1 and LAG3 bound at once
Chain of PD1 on PD1+LAG3+ human U2OS cells (Q15116 25-288): as the sequence (Q15116 25-288 limits assumed) above
Description: (§1) For this specific interaction, the cytosolic C-terminal ends of both receptors were individually fused to heterologous subunits of a reporter enzyme.
(§2) On the next day cell medium was discarded and replaced by fresh medium. Antibody or ligand dilutions were prepared and titrated amounts of indicated (bispecific) antibodies were added and incubated at 37° C. for 2 hours. Next, a substrate/buffer mix (e.g. PathHunterFlash detection reagent) was added and again incubated for 1h. For measuring chemoluminescence induced upon simultaneous binding and dimerization a Tecan infinite reader was used.

[5] = molecular target: T2, LAG3 on PD1+LAG3+ human U2OS cells; experiment: as above
Description: as §1, §2

biotinylated-Lag3 = molecular target: T3, biotinylated-Lag3; experiment: ELISA, inhibition of biotinylated-Lag3 binding to MHC-II on A375 cells (competitor MHC-II)

Row | EC50 [1] | EC50 [2] | EC50 [3] | EC50 (read off the curve) [4] | EC50 (read off the curve) [5] | IC50 (biotinylated-Lag3) | Binder
1 | 0.1 nM | 0.07 nM | 0.23 nM | ~0.02 µg/mL | ~0.02 µg/mL | 1.11 nM | PD1/LAG3 0927 (bispecific antibody, human IgG1, kappa, L234A L235A, 1+1 CrossMAb Vh-VL, knobs into holes, IgG1 PGLALA) heavy 1: not shown heavy 2: EVQLLESGGGLVQPGGSLRLSCAASGFIFDDYTMNWVRQAPGKGLEWVAVISWDGGGTYYTDSVKGRFTISRDDFKNTLYLQMNSLRAEDTAVYYCAKGLTDTTLYGSDYWGQGTLVTVSSASTKGPSVFPLAPSSKSTSGGTAALGCLVEDYFPEPVTVSWNSGALTSGVHTFPAVLQSSGLYSLSSVVTVPSSSLGTQTYICNVNHKPSNTKVDEKVEPKSCDKTHTCPPCPAPEAAGGPSVFLFPPKPKDTLMISRTPEVTCVVVDVSHEDPEVKFNWYVDGVEVHNAKTKPREEQYNSTYRVVSVLTVLHQDWLNGKEYKCKVSNKALGAPIEKTISKAKGQPREPQVCTLPPSRDELTKNQVSLSCAVKGFYPSDIAVEWESNGQPENNYKTTPPVLDSDGSFFLVSKLTVDKSRWQQGNVFSCSVMHEALHNHYTQKSLSLSPGK light 1: EVQLLESGGGLVQPGGSLRLSCAASGFSFSSYTMSWVRQAPGKGLEWVATISGGGRDIYYPDSVKGRFTISRDNSKNTLYLQMNSLRAEDTAVYYCVLLTGRVYFALDSWGQGTLVTVSSASVAAPSVFIFPPSDEQLKSGTASVVCLLNNFYPREAKVQWKVDNALQSGNSQESVTEQDSKDSTYSLSSTLTLSKADYEKHKVYACEVTHQGLSSPVTKSFNRGEC light 2: not shown
2 | 0.07 nM | 0.06 nM | 0.2 nM | ~0.02 µg/mL | ~0.02 µg/mL | 0.72 nM | PD1/LAG3 0799 (bispecific antibody, human IgG1, kappa, L234A L235A, 1+1 CrossMAb Vh-VL, knobs into holes, IgG1 PGLALA) heavy 1: not shown heavy 2: EVQLVESGGGLVQPGGSLRLACAASGFTFSDYAMSWVRQAPGKGLEWVSGIDNSGYYTYYTDSVKGRFTISRDDVKNTLYLQMNSLRAEDTAVYLCTKTHSGLIVNDAFDIWGQGTMVTVSSASTKGPSVFPLAPSSKSTSGGTAALGCLVEDYFPEPVTVSWNSGALTSGVHTFPAVLQSSGLYSLSSVVTVPSSSLGTQTYICNVNHKPSNTKVDEKVEPKSCDKTHTCPPCPAPEAAGGPSVFLFPPKPKDTLMISRTPEVTCVVVDVSHEDPEVKFNWYVDGVEVHNAKTKPREEQYNSTYRVVSVLTVLHQDWLNGKEYKCKVSNKALGAPIEKTISKAKGQPREPQVCTLPPSRDELTKNQVSLSCAVKGFYPSDIAVEWESNGQPENNYKTTPPVLDSDGSFFLVSKLTVDKSRWQQGNVFSCSVMHEALHNHYTQKSLSLSPGK light 1: EVQLLESGGGLVQPGGSLRLSCAASGFSFSSYTMSWVRQAPGKGLEWVATISGGGRDIYYPDSVKGRFTISRDNSKNTLYLQMNSLRAEDTAVYYCVLLTGRVYFALDSWGQGTLVTVSSASVAAPSVFIFPPSDEQLKSGTASVVCLLNNFYPREAKVQWKVDNALQSGNSQESVTEQDSKDSTYSLSSTLTLSKADYEKHKVYACEVTHQGLSSPVTKSFNRGEC light 2: not shown
